US20200102387A1 (CELGENE, published 2020)
Like-named read-outs stand apart in the source and are kept apart here. Values belong to the binder of their own block, whether it stands above or below them.

Assays:
[1] = target: T1, human SIRPα v1-Fc (SIRPα1 extracellular domain fused to human IGHG1_Fc) (human, UniProt P78324 31-373; P0DOX5 223-449 = IgG part); experiment: BLI Octet, antigen-Fc on biosensor;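 further: antigen captured on the biosensor tip and then immersed in solutions of the test antibodies, which act as the analyte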
T1 construct: also called V1 (e.g. SIRPα1); SIRPα V1: DLN

human SIRPβ-Fc = target: T2, human SIRPβ-Fc (human); experiment: BLI Octet, antigen-Fc on biosensor;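 further: antigen captured on the biosensor tip and then immersed in solutions of the test antibodies, which act as the analyte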
T2 construct: a signal peptide may be part of the entry

mouse SIRPα-Fc [2] = target: T3, mouse SIRPα-Fc (mouse); experiment: BLI Octet, antigen-Fc on biosensor
T3 construct: a signal peptide may be part of the entry; also called Ms; Ms SIRPα-Fc

[3] = target: T4, human SIRPα v2-Fc (SIRPα2 extracellular domain fused to human IGHG1_Fc) (human, UniProt P78324 31-373; P0DOX5 223-449 = IgG part); experiment: BLI Octet, antigen-Fc on biosensor;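 further: antigen captured on the biosensor tip and then immersed in solutions of the test antibodies, which act as the analyte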
T4 construct: as m38; also called V2 (e.g. SIRPα2); SIRPα V2:ESE

cyno SIRPα-Fc = target: T5, cyno SIRPα-Fc (cynomolgus); experiment: BLI Octet, antigen-Fc on biosensor;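 further: antigen captured on the biosensor tip and then immersed in solutions of the test antibodies, which act as the analyte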
T5 construct: a signal peptide may be part of the entry

human SIRPγ-Fc = target: T6, human SIRPγ-Fc (human); experiment: BLI Octet, antigen-Fc on biosensor
T6 construct: a signal peptide may be part of the entry

mouse SIRPα-Fc [4] = target: T3, mouse SIRPα-Fc; experiment: BLI Octet, antigen-Fc on biosensor; remark: listed apart in the source
human SIRPα on cells = target: T7, human SIRPα on cells (human, UniProt P78324 31-504); experiment: cell binding, Hu SIRPα-CHO-K1 cells, 100 nM antibody
T7 construct: whole, on cells; also called human SIRPα-CHO; Hu SIRPα-CHO-K1

[5] = target: T8, cynomolgus SIRPα on cells (cynomolgus, UniProt P78324 31-373 (human entry)); experiment: cell binding, Cyno SIRPα-CHO-K1 cells, 100 nM antibody
T8 construct: also called cyno SIRPα-CHO; Cyno SIRPα-CHO-K1; not shown: Transmembrane and cytoplasmic region of cynomolgus SIRPα
T8 chain: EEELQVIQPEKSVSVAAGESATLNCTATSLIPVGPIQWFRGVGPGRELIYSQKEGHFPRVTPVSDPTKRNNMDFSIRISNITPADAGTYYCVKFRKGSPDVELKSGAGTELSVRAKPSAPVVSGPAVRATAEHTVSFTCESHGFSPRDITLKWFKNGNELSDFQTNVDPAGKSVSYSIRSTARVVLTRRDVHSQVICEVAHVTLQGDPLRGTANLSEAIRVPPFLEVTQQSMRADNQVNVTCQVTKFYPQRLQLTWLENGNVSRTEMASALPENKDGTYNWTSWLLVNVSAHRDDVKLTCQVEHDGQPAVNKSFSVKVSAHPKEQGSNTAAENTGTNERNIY

[6] = target: T9, human SIRPα v4-Fc (SIRPα4 extracellular domain fused to human IGHG1_Fc) (human, UniProt P78324 31-373; P0DOX5 223-449 = IgG part); experiment: BLI Octet, antigen-Fc on biosensor
T9 construct: as m38; also called V4 (e.g. SIRPα4)

[7] = target: T10, human SIRPα v3-Fc (SIRPα3 extracellular domain fused to human IGHG1_Fc) (human, UniProt P78324 31-373; P0DOX5 223-449 = IgG part); experiment: BLI Octet, antigen-Fc on biosensor
T10 construct: as m38; also called V3 (e.g. SIRPα3)

[8] = target: T11, human SIRPα v5-Fc (SIRPα5 extracellular domain fused to human IGHG1_Fc) (human, UniProt P78324 31-373; P0DOX5 223-449 = IgG part); experiment: BLI Octet, antigen-Fc on biosensor
T11 construct: as m38; also called V5 (e.g. SIRPα5)

[9] = target: T12, human SIRPα v6-Fc (SIRPα6 extracellular domain fused to human IGHG1_Fc) (human, UniProt P78324 31-373; P0DOX5 223-449 = IgG part); experiment: BLI Octet, antigen-Fc on biosensor
T12 construct: as m38; also called V6 (e.g. SIRPα6)

T3 sequence (chain, as listed by the source limits assumed): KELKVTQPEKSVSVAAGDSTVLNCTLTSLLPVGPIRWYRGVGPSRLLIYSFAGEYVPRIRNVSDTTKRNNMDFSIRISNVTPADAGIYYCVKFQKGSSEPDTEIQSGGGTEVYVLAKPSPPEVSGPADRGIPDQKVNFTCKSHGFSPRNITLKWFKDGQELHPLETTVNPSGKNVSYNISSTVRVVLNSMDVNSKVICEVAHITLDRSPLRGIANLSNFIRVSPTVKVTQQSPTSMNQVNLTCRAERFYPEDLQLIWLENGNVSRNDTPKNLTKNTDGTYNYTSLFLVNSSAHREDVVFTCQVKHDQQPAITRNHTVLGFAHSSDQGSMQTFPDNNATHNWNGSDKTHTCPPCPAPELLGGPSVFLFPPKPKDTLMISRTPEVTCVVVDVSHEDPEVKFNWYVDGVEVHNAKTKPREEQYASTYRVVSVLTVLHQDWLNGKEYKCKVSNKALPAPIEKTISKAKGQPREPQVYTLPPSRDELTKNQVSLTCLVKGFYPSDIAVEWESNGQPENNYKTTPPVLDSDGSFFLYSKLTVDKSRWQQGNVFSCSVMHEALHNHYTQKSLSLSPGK

Kd [1]: 0.45 nM
Kd (human SIRPβ-Fc): 1 nM
Kd (mouse SIRPα-Fc [2]): 72.8 nM
Kd [3]: 18.2 nM
Kd (cyno SIRPα-Fc): 18 nM
Kd (human SIRPγ-Fc): 0.144 nM
B1: SIRPAB-4 (antibody, human IgG1, kappa, V domains shown)
VH: QVQLQESGPGLVKPSQTLSLTCTVSGGSISSGSPYWSWIRQHPGKGLEWIGYIYASGFTYYNPSLKSRVTISVDTSKNQFSLKLSSVTAADTAVYYCAREGYHSGMDVWGQGTTVTVSS
VL: DIQMTQSPSSLSASVGDRVTITCQASQDISNYLNWYQQKPGKAPKLLIYDASNLATGVPSRFSGSGSGTDFTFTISSLQPEDIATYYCQQFAYLPWTFGGGTKVEIKR

Kd (mouse SIRPα-Fc [4]): 2.2 nM
B2: SIRPAB-18 (antibody, human IgG1, kappa, V domains shown)
VH: QVQLQESGPGLVKPSQTLSLTCTVSGGSISSGGYYWSWIRQHPGKGLEWIGAIYYSGPIYYNPSLKSRVTISVDTSKNQFSLKLSSVTAADTAVYYCSKEGYHSGMDVWGQGTTVTVSS
VL: DIQMTQSPSSLSASVGDRVTITCQASQDISNYLNWYQQKPGKAPKLLIYDASNLATGVPSRFSGSGSGTDFTFTISSLQPEDIATYYCQQFAYLPWTFGGGTKVEIKR

Kd (mouse SIRPα-Fc [4]): 0.39 nM
B3: SIRPAB-20 (antibody, human IgG1, kappa, V domains shown)
VH: QVQLQESGPGLVKPSQTLSLTCTVSGGSISSGGYYWSWIRQHPGKGLEWIGAIYYSGPIYYNPSLKSRVTISVDTSKNQFSLKLSSVTAADTAVYYCSKEGYHSGMDVWGQGTTVTVSS
VL: DIQMTQSPSSLSASVGDRVTITCQASQDISDYLNWYQQKPGKAPKLLIYDADNLETGVPSRFSGSGSGTDFTFTISSLQPEDIATYYCQQFAYLPWTFGGGTKVEIKR

Kd [1]: 0.165 nM
Kd (human SIRPβ-Fc): 0.15 nM
Kd (mouse SIRPα-Fc [2]): 7.51 nM
Kd [3]: 27.5 nM
Kd (human SIRPγ-Fc): 0.154 nM
B4: SIRPAB-5 (antibody, human IgG1, kappa, V domains shown)
VH: QVQLQESGPGLVKPSQTLSLTCTVSGGSISSGPAYWSWIRQHPGKGLEWIGTIYYSGSTFYNPSLKSRVTISVDTSKNQFSLKLSSVTAADTAVYYCAREGYHSGMDVWGQGTTVTVSS
VL: DIQMTQSPSSLSASVGDRVTITCQASQDISNYLNWYQQKPGKAPKLLIYDASNLATGVPSRFSGSGSGTDFTFTISSLQPEDIATYYCQQFAYLPWTFGGGTKVEIKR

Kd (mouse SIRPα-Fc [4]): 1.02 nM
B5: SIRPAB-19 (antibody, human IgG1, kappa, V domains shown)
VH: QVQLQESGPGLVKPSQTLSLTCTVSGGSISSGGYYWSWIRQHPGKGLEWIGAIYYSGPIYYNPSLKSRVTISVDTSKNQFSLKLSSVTAADTAVYYCSKEGYHSGMDVWGQGTTVTVSS
VL: DIQMTQSPSSLSASVGDRVTITCQASDDISDYLNWYQQKPGKAPKLLIYDASNIEDGVPSRFSGSGSGTDFTFTISSLQPEDIATYYCQQFAYLPWTFGGGTKVEIKR

fold increase over background (100 nM) (human SIRPα on cells): 2100 fold
fold increase over background (100 nM) [5]: 2390 fold
Kd [1]: 0.15 nM
koff [1]: 0.000271 s⁻¹
kon [1]: 1.84e+06 M⁻¹ s⁻¹
Kd (human SIRPβ-Fc): 2.56 nM
koff (human SIRPβ-Fc): 0.00391 s⁻¹
kon (human SIRPβ-Fc): 1.53e+06 M⁻¹ s⁻¹
Kd [6]: 0.95 nM
koff [6]: 0.00165 s⁻¹
kon [6]: 1.74e+06 M⁻¹ s⁻¹
Kd [7]: 10.2 nM
koff [7]: 0.00718 s⁻¹
kon [7]: 702000 M⁻¹ s⁻¹
Kd [8]: 0.66 nM
koff [8]: 0.00143 s⁻¹
kon [8]: 2.17e+06 M⁻¹ s⁻¹
Kd [3]: 13.2 nM
koff [3]: 0.00956 s⁻¹
kon [3]: 730000 M⁻¹ s⁻¹
Kd (cyno SIRPα-Fc): 4.59 nM
koff (cyno SIRPα-Fc): 0.00546 s⁻¹
kon (cyno SIRPα-Fc): 1.19e+06 M⁻¹ s⁻¹
Kd (human SIRPγ-Fc): 0.1 nM
koff (human SIRPγ-Fc): 0.0002 s⁻¹
kon (human SIRPγ-Fc): 1.94e+06 M⁻¹ s⁻¹
Kd [9]: 12.2 nM
koff [9]: 0.0111 s⁻¹
kon [9]: 907000 M⁻¹ s⁻¹
B6: SIRPAB-7 (antibody, human IgG1, kappa, V domains shown)
VH: QVQLQESGPGLVKPSQTLSLTCTVSGGSISSGEYYWEWIRQHPGKGLEWIGYIYSSGFTYYNPSLKSRVTISVDTSKNQFSLKLSSVTAADTAVYYCAREGLDGSYGSSAWGQGTLVTVSS
VL: DIQLTQSPSSLSASVGDRVTITCQASQDISNYLNWYQQKPGKAPKLLIYDASNLETGVPSRFSGSGSGTDFTFTISSLQPEDIATYYCQQFAYLPYTFGGGTKVEIKR
